Data from paper PMC12413468.

Target: Fluorescent probe peptide NH3+-NLVGRF-[DAP-FAM]-VSPVPE-COO- (human)
Assay: fluorescence polarisation

Sequence of His6-tagged OSR1 CCT domain (human OSR1 433–527) (O95747 433-527): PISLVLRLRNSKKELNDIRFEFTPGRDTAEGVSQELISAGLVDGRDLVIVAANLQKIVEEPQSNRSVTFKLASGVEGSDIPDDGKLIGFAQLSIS

Row | Kd [nM] | fold decrease in peptide probe binding affinity against wild type [fold] | Substance
1 | 1500 |  | His6-tagged OSR1 CCT domain (human OSR1 433–527) (from UniProt O95747 433-527) (domain or fragment)
2 | 670 |  | His6-tagged SPAK CCT domain (mouse SPAK 459–556) (from UniProt Q9Z1W9 459-556) (domain or fragment)
3 |  | 50 | Purified SPAK CCT domain D477Q (domain or fragment)
